The target of data set [1] is T1, Ac-…-CONH2 (RAD16-II) self-assembling peptide, as nanofiber hydrogel.
T1 sequence (peptide, N-terminal acetyl (Ac); C-terminal amide (CONH2)): RARADADARARADADA
Put plainly: in vitro binding experiment: release of 100 nM Alexa-488 labeled protein from a nanofiber hydrogel in culture inserts.

Data set [2] deals with T2, SDF-1(S4V)-N-terminal peptide (first 8 amino acids of SDF-1(S4V), FRET peptide).
T2 chain: KPVVLSYR

For data set [3], the target named is T3, SDF-1-N-terminal peptide (first 8 amino acids of SDF-1, FRET peptide).
T3 chain: KPVSLSYR

As for “Alexa-488 labeled SSDF-1 (from UniProt P48061 22-89) (ligand)”, in data set [1], the percent released from the nanofibers over 24 hours is 73%.

B1: Human recombinant MMP-2 (R&D Systems), activated with 4-aminophenylmercuric acetate (protein)
chain: YNFFPRKPKWDKNQITYRIIGYTPDLDPETVDDAFARAFQVWSDVTPLRFSRIHDGEADIMINFGRWEHGDGYPFDGKDGLLAHAFAPGTGVGGDSHFDDDELWTLGEGQVVRVKYGNADGEYCKFPFLFNGKEYNSCTDTGRSDGFLWCSTTYNFEKDGKYGFCPHEALFTMGGNAEGQPCKFPFRFQGTSYDSCTTEGRTDGYRWCGTTEDYDRDKKYGFCPETAMSTVGGNSEGAPCVFPFTFLGNKYESCTSAGRSDGKMWCATTANYDDDRKWGFCPDQGYSLFLVAAHEFGHAMGLEHSQDPGALMAPIYTYTKNFRLSQDDIKGIQELYGASPDIDLGTGPTPTLGPVTPEICKQDIVFDGIAQIRGEIFFFKDRFIWRTVTPRDKPMGPLLVATFWPELPEKIDAVYEAPQEEKAVFFAGNEYWIYSASTLERGYPKPLTSLGLPPDVQRVDAAFNWSKNKKTYIFAGDKFWRYNEVKKKMDPGFPKLIADAWNAIPDNLDAVVDLQGGGHSYFFKGAYYLKLENQSLKSVKFGSIKSDWLGC
In the case of B1, in data set [2], the “amount of peptide cleaved after 4 hours (FRET peptide cleavage)” value is “no significant amount (1±3 pmol)” and the initial cleavage rate is recorded as 0.1±0.1×10^-10M s^-1. In addition, in data set [3], the “amount of peptide cleaved after 4 hours (FRET peptide cleavage)” value is 205 ± 18 pmol and the initial cleavage rate was 2.0±0.1×10^-10M s^-1. Further, in the data set with Sumo-SDF-1(S4V)-RAD, the “rate of cleavage relative to SDF-1 (times lower), SDS-PAGE” value is on record as “the rate of SDF-1(S4V) cleavage is at least 48 times lower than SDF-1”. Besides, the “cleavage seen by SDS-PAGE” value with Sumo-SDF-1-RAD is recorded as “more Sumo-SDF-1-RAD was cleaved within 1 hour than Sumo-SDF-1(S4V)-RAD in 48 hours”.

The values are drawn from patent US20110224139A1.
